Results: patent US9289506B2, “Surface binding of nanoparticle based drug delivery to tissue” (Massachusetts Institute of Technology, priority 2013, dated 2016)
Values joined by “and” are separate entries in the source; they are usually repeats but may differ in a detail not shown here. Equal values may be shown once.

Tests used:
[1] = One-way diffusion of solutes into cartilage half disks in transport chamber, confocal microscopy imaging; format: in vitro ADME, bovine; conditions: normal cartilage
Text: Solute Types: Two types of 15 nm diameter (MW˜300 kDa) Quantum Dots (QD) were used: (i) positively charged, and (ii) charge-neutral; same concentration. Transport of FITC (MW˜300 Da, diam˜0.9 nm) and dextrans (Dex) conjugated with FITC (Sigma Aldrich) of different MW (˜8 kDa, diam˜4.3 nm; ˜40 kDa, diam˜10 nm) were also investigated.
Transport Studies: A special PMMA transparent transport chamber was designed to allow diffusion of solutes into only one side (superficial zone) of the cartilage disk. The chamber was treated with Casein to block non-specific binding of solutes to chamber surfaces. The equilibrated cartilage disks were then cut into halves and placed in the middle of the ‘slot chambers’ of the fixture. The chamber side facing the superficial zone was filled with ˜45 μl of solute-PBS solution; the other side was filled with 1×PBS alone. […]
Using a scalpel, a slice (100-200 μm thick) was then cut from the center of each disk (FIG. 1B). […] Appropriate filters were chosen to eliminate auto-fluorescence of cartilage at the settings used for imaging. […] To ensure proper image comparison, solute concentrations were chosen such that the FITC concentration in each solution was identical, thereby giving equal fluorescence intensities.

[2] = Net charge of Avidin estimated using Donnan equilibrium; format: physicochemical; conditions: assuming uptake entirely due to Donnan partitioning, no binding
Text: However, it is not certain whether the effective charge sensed during transport and uptake would include all these residues, or whether certain residues may be internal and less accessible to charge-charge interactions within the cartilage extracellular matrix. In addition, the unknown extent of Avidin glycosylation may contribute additional net negative charge that would decrease the total net charge. However, this estimate assumes that all such residues are ionized in aqueous solution and that none of these residues are internal (buried) and thereby inaccessible to charge-charge interactions within the cartilage matrix. Furthermore, this estimate neglects the effects of Avidin glycosylation which could add additional negative charge groups to the total sum. […]
[formula] (Byun et al., Arch Biochem Biophys, 2010) was measured to be, −0.13 M. Rearranging Eq. (12) gives: […]
Donnan theory (Grodzinsky et al., New York: Garland Science, 2011) is based on the assumptions that (1) all freely moving charged species (i.e., Avidin and bath ions) will partition into a charged tissue according to Boltzmann statistics and, (2) the net charge in the tissue is zero by electroneutrality (i.e., the sum of the tissue fixed charge density and mobile carrier concentrations). By fitting the Donnan theory to the equilibrium uptake data of FIG. 12A, the effective net charge of Avidin was calculated to be +6.2. […]

[3] = Competitive binding of FITC-Avidin and unlabeled Avidin in cartilage (binding isotherm fit); parameters: species or system bovine; conditions: best fit of binding isotherm to FIG. 13 data
Method: To test this hypothesis, competitive binding experiments were performed in which 3 mm diameter cartilage disks were equilibrated for 3 days in 300 μl buffer containing a fixed amount of (fluorescently labeled) FITC-Avidin (1 μM) and graded amounts of unlabeled Avidin (0, 10, 76, 100, and 203 μM). The disks were split into half disks to reduce the time needed for equilibration, which was performed in 96 well plates at 37° C. The uptake ratio, RU, was measured and plotted versus the total bath concentration of Avidin (labeled+unlabeled, FIG. 13), where RU is defined as the total concentration of Avidin inside the cartilage (bound (CB) plus free (CF)) per intra-tissue water weight, normalized to the Avidin concentration in the equilibration bath (CBath):
Labeled and unlabeled Avidin were held to partition into the cartilage identically. At very low concentration of the labeled Avidin (≦1 μM), a high uptake of ˜120 was observed. When unlabeled Avidin was added to the bath, both species (labeled and unlabeled) could compete for the same (constant) number of binding sites available in the tissue (site density NT). […] To model the data of FIG. 13, a first-order, bimolecular, reversible reaction was produced to describe binding of Avidin to a single dominant binding species within cartilage. A theoretical model was adopted, (Garcia et al., Arch Biochem Biophys, 2003) previously used for characterizing the binding of soluble insulin like growth factor-1 (IGF-1) to IGF-binding proteins (IGF-BPs) that are uniformly enmeshed and fixed within cartilage matrix. According to this model, the equilibrium molar concentration of free solute (CF), bound solute (CB), intra-tissue binding site density (NT) and the equilibrium dissociation constant (KEQ) are related by the binding isotherm:
[formula] which is similar in form to a Langmuir adsorption isotherm. […]
[formula] […] Thus, K is determined by both steric hindrance and electrostatic (Donnan) interactions. […]

With “Avidin: positively charged globular glycosylated tetrameric protein, pI 10.5, 66 kDa, diameter ~7 nm (Invitrogen); SEQ ID NO 1” the “time to penetrate the full thickness (1 mm) of the cartilage explant” value [1] was ≤ 24 h, the “upper estimate of effective net charge” value [2] was “+13 to +14” and the “equilibrium partition coefficient K” value [3] was ~6. The Kd ([3]; read-out: equilibrium dissociation constant KEQ) was 150 µM and ~150 µM.
